Results reported in patent publication US20180353525A1 (SOCPRA SCIENCES SANT ET HUMAINES S E C, published 2018).

B1: C2 peptide (RMWYNFDHNY) (peptide)
peptide: RMWYNFDHNY
B2: C2WY→AA peptide (RMAANFDHNY) (peptide)
peptide: RMAANFDHNY

Tests used:
[1] = target: T1, receptor for activated C kinase (RACK1), endogenous, HT-1080 cells (human, UniProt P63244 1-317); assay: cell-based or functional assay
[2] = target: T1, receptor for activated C kinase …; assay: cell-based or functional assay; remark: listed apart in the source

Binder | IC50 of doxorubicin, HT1080, MTT viability, C2 0.25 µM, 1% O2 (Experiment 1) [1] [nM] | IC50 of doxorubicin, HT1080, MTT viability, C2 0.25 µM, 21% O2 (Experiment 1) [1] [nM] | IC50 of doxorubicin, HT1080, MTT viability, C2 5.00 µM, 1% O2 (Experiment 1) [1] [nM] | IC50 of doxorubicin, HT1080, MTT viability, C2 5.00 µM, 21% O2 (Experiment 1) [1] [nM] | IC50 of doxorubicin, HT1080, MTT viability, C2 0.25 µM, 1% O2 (Experiment 2) [2] [nM] | IC50 of doxorubicin, HT1080, MTT viability, C2 0.25 µM, 21% O2 (Experiment 2) [2] [nM] | IC50 of doxorubicin, HT1080, MTT viability, C2 20.0 µM, 1% O2 (Experiment 2) [2] [nM] | IC50 of doxorubicin, HT1080, MTT viability, C2 20.0 µM, 21% O2 (Experiment 2) [2] [nM] | IC50 of doxorubicin, HT1080, MTT viability, C2WY→AA 0.25 µM, 1% O2 (Experiment 1) [1] [nM] | IC50 of doxorubicin, HT1080, MTT viability, C2WY→AA 0.25 µM, 21% O2 (Experiment 1) [1] [nM] | IC50 of doxorubicin, HT1080, MTT viability, C2WY→AA 5.00 µM, 1% O2 (Experiment 1) [1] [nM] | IC50 of doxorubicin, HT1080, MTT viability, C2WY→AA 5.00 µM, 21% O2 (Experiment 1) [1] [nM] | IC50 of doxorubicin, HT1080, MTT viability, C2WY→AA 0.25 µM, 1% O2 (Experiment 2) [2] [nM] | IC50 of doxorubicin, HT1080, MTT viability, C2WY→AA 0.25 µM, 21% O2 (Experiment 2) [2] [nM] | IC50 of doxorubicin, HT1080, MTT viability, C2WY→AA 20.0 µM, 1% O2 (Experiment 2) [2] [nM] | IC50 of doxorubicin, HT1080, MTT viability, C2WY→AA 20.0 µM, 21% O2 (Experiment 2) [2] [nM]
B1 | 39.7 | 12.2 | 39.1 | 17.2 | 30.6 | 11.7 | 15.7 | 10 |  |  |  |  |  |  |  | 
B2 |  |  |  |  |  |  |  |  | 99.1 | 21.3 | 76.4 | 16.4 | 98.9 | 12.5 | 74.3 | 10.9
